# In the supplement of paper PMC9112550, “Optimization of the antimicrobial peptide Bac7 by deep mutational scanning” (BMC Biology, 2022):
# Tested on: Escherichia coli TOP10
# Test: shrunken log2 fold change of peptide-encoding DNA abundance (4.5 h post-induction vs induction); higher = less antimicrobial activity (less host growth inhibition)
# Settings: time post-induction: 4.5 h; library: site-saturation at positions 5, 18, 19, 20
# 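Also: peptides expressed intracellularly from a pBAD plasmid library in pooled LB shake-flask culture, induced with 0.3% L-arabinose, DNA abundance read by NGS, three biological replicates, DESeq2 with apeglm shrinkage.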
row,Sequence,shrunken log2 fold change
1,RRIRDRPPRLPRPRPRPCHQPRP,-0.328
2,RRIRGRPPRLPRPRPRPYLVPRP,0.15
3,RRIRQRPPRLPRPRPRPMHLPRP,-0.157
4,RRIRIRPPRLPRPRPRPKDAPRP,0.176
5,RRIRARPPRLPRPRPRPYLGPRP,0.0554
6,RRIRRRPPRLPRPRPRPVVMPRP,-0.0785
7,RRIRIRPPRLPRPRPRPHGFPRP,-0.383
8,RRIRERPPRLPRPRPRPDDWPRP,-0.0125
9,RRIRRRPPRLPRPRPRPSKLPRP,-0.0224
10,RRIRGRPPRLPRPRPRPMATPRP,1.37
11,RRIRPRPPRLPRPRPRPEQDPRP,0.0894
12,RRIRFRPPRLPRPRPRPYYFPRP,-0.706
13,RRIRSRPPRLPRPRPRPQVLPRP,-0.0779
14,RRIRFRPPRLPRPRPRPDSLPRP,-0.204
15,RRIRNRPPRLPRPRPRPAVPPRP,-0.165
16,RRIRVRPPRLPRPRPRPRDGPRP,1.09
17,RRIRNRPPRLPRPRPRPPSVPRP,0.0886
18,RRIRYRPPRLPRPRPRPHMHPRP,-0.988
19,RRIRFRPPRLPRPRPRPKIAPRP,-0.0112
20,RRIRKRPPRLPRPRPRPLIIPRP,-0.501
21,RRIRPRPPRLPRPRPRPDWVPRP,0.0636
22,RRIRNRPPRLPRPRPRPQMEPRP,-0.191

row,Sequence,shrunken log2 fold change
1,RRIRYRPPRLPRPRPRPEARPRP,0.105
2,RRIRARPPRLPRPRPRPSVWPRP,-0.0231
3,RRIRYRPPRLPRPRPRPVVQPRP,0.0013
4,RRIRDRPPRLPRPRPRPKFTPRP,-0.0602
5,RRIRFRPPRLPRPRPRPIIKPRP,-0.696
6,RRIRHRPPRLPRPRPRPTGYPRP,-0.0185
7,RRIRDRPPRLPRPRPRPVWQPRP,0.63
8,RRIRARPPRLPRPRPRPFFVPRP,0.149
9,RRIRTRPPRLPRPRPRPHNYPRP,-0.329
10,RRIRKRPPRLPRPRPRPFDSPRP,-0.0504
11,RRIRKRPPRLPRPRPRPKLFPRP,0.379
12,RRIRVRPPRLPRPRPRPCCFPRP,-0.00712
13,RRIRCRPPRLPRPRPRPHQGPRP,-0.0624
14,RRIRVRPPRLPRPRPRPCLCPRP,-0.491
15,RRIRMRPPRLPRPRPRPGVIPRP,3.26
16,RRIRLRPPRLPRPRPRPIEMPRP,-0.0708
17,RRIRCRPPRLPRPRPRPKPRPRP,0.749
18,RRIRLRPPRLPRPRPRPPCLPRP,0.0124
19,RRIRIRPPRLPRPRPRPREQPRP,0.198
20,RRIRQRPPRLPRPRPRPSEQPRP,0.155
21,RRIRVRPPRLPRPRPRPIWEPRP,-0.00136
22,RRIRERPPRLPRPRPRPPPCPRP,0.0452

row,Sequence,shrunken log2 fold change
1,RRIRDRPPRLPRPRPRPSKPPRP,-0.0858
2,RRIRHRPPRLPRPRPRPRCSPRP,-0.236
3,RRIRVRPPRLPRPRPRPPEQPRP,0.0662
4,RRIRARPPRLPRPRPRPHLWPRP,0.645
5,RRIRYRPPRLPRPRPRPAIIPRP,-0.244
6,RRIRSRPPRLPRPRPRPYVQPRP,-0.024
7,RRIRVRPPRLPRPRPRPMGFPRP,0.034
8,RRIRRRPPRLPRPRPRPNKLPRP,-0.138
9,RRIRIRPPRLPRPRPRPSTLPRP,-0.726
10,RRIRHRPPRLPRPRPRPYPYPRP,-0.43
11,RRIRSRPPRLPRPRPRPLRNPRP,1.38
12,RRIRPRPPRLPRPRPRPCVEPRP,0.021
13,RRIRHRPPRLPRPRPRPDTAPRP,0.0194
14,RRIRHRPPRLPRPRPRPGHPPRP,-0.00757
15,RRIRTRPPRLPRPRPRPRWKPRP,0.0709
16,RRIRERPPRLPRPRPRPEMVPRP,-0.0371
17,RRIRVRPPRLPRPRPRPEDEPRP,0.138
18,RRIRERPPRLPRPRPRPKSHPRP,-0.336
19,RRIRERPPRLPRPRPRPWLSPRP,0.0694
20,RRIRKRPPRLPRPRPRPSPCPRP,0.13
21,RRIRRRPPRLPRPRPRPEITPRP,0.0455
22,RRIRIRPPRLPRPRPRPYKIPRP,-0.688

row,Sequence,shrunken log2 fold change
1,RRIRRRPPRLPRPRPRPAHLPRP,0.178
2,RRIRGRPPRLPRPRPRPLMPPRP,0.285
3,RRIRHRPPRLPRPRPRPFAPPRP,-0.0777
4,RRIRNRPPRLPRPRPRPVLVPRP,-0.211
5,RRIRWRPPRLPRPRPRPPHQPRP,0.235
6,RRIRFRPPRLPRPRPRPKSQPRP,-0.0404
7,RRIRERPPRLPRPRPRPWGFPRP,0.0221
8,RRIRPRPPRLPRPRPRPILNPRP,-0.339
9,RRIRVRPPRLPRPRPRPNAAPRP,0.0557
10,RRIRTRPPRLPRPRPRPKVTPRP,-0.026
11,RRIRQRPPRLPRPRPRPLPVPRP,0.21
12,RRIRDRPPRLPRPRPRPNTEPRP,-0.0682
13,RRIRWRPPRLPRPRPRPNMPPRP,-0.268
14,RRIRKRPPRLPRPRPRPSPEPRP,0.525
15,RRIRKRPPRLPRPRPRPVANPRP,0.0525
16,RRIRKRPPRLPRPRPRPKEGPRP,0.0503
17,RRIRKRPPRLPRPRPRPIRNPRP,-0.34
18,RRIRCRPPRLPRPRPRPYYAPRP,-1.1
19,RRIRHRPPRLPRPRPRPTARPRP,0.156
20,RRIRYRPPRLPRPRPRPQRQPRP,-0.00525
21,RRIRARPPRLPRPRPRPLLPPRP,0.419
22,RRIRTRPPRLPRPRPRPWCHPRP,-0.732

row,Sequence,shrunken log2 fold change
1,RRIRERPPRLPRPRPRPHTDPRP,-0.546
2,RRIRWRPPRLPRPRPRPLHMPRP,-0.0711
3,RRIRKRPPRLPRPRPRPRAPPRP,0.538
4,RRIRVRPPRLPRPRPRPYLGPRP,-0.177
5,RRIRQRPPRLPRPRPRPDYIPRP,-0.0798
6,RRIRWRPPRLPRPRPRPIQMPRP,-0.0543
7,RRIRCRPPRLPRPRPRPSNWPRP,0.0114
8,RRIRFRPPRLPRPRPRPWAQPRP,-0.141
9,RRIRDRPPRLPRPRPRPVSYPRP,-0.0715
10,RRIRGRPPRLPRPRPRPGWHPRP,0.277
11,RRIRDRPPRLPRPRPRPRHTPRP,0.122
12,RRIRNRPPRLPRPRPRPLHPPRP,0.0757
13,RRIRYRPPRLPRPRPRPSYQPRP,-1.27
14,RRIRHRPPRLPRPRPRPYSDPRP,-1.17
15,RRIRYRPPRLPRPRPRPSDYPRP,-1.34
16,RRIRNRPPRLPRPRPRPNVEPRP,-0.0627
17,RRIRIRPPRLPRPRPRPPIRPRP,-0.0314
18,RRIRVRPPRLPRPRPRPECAPRP,0.376
19,RRIRGRPPRLPRPRPRPPFTPRP,0.462
20,RRIRVRPPRLPRPRPRPWDMPRP,-0.184
21,RRIRKRPPRLPRPRPRPDVFPRP,-0.162
